Data taken from PMC4328751 (EMBO Reports, 2014).
Blank lines part the entries; values can stand above or below the binder they belong to.

Legend:
[1] = target: T1, yHsp70 (yeast, UniProt P10591 1-642, 5-(and-6)-carboxyfluorescein coupled (in the analytical ultracentrifugation)); assay: SPR
[2] = target: T1, yHsp70; assay: AUC
[3] = target: hHsp90 (human, UniProt P08238 1-724); assay: SPR
[4] = target: yHsp90 (yeast, UniProt P02829 1-709); assay: SPR
Sequence of yHsp90 (P02829 whole entry): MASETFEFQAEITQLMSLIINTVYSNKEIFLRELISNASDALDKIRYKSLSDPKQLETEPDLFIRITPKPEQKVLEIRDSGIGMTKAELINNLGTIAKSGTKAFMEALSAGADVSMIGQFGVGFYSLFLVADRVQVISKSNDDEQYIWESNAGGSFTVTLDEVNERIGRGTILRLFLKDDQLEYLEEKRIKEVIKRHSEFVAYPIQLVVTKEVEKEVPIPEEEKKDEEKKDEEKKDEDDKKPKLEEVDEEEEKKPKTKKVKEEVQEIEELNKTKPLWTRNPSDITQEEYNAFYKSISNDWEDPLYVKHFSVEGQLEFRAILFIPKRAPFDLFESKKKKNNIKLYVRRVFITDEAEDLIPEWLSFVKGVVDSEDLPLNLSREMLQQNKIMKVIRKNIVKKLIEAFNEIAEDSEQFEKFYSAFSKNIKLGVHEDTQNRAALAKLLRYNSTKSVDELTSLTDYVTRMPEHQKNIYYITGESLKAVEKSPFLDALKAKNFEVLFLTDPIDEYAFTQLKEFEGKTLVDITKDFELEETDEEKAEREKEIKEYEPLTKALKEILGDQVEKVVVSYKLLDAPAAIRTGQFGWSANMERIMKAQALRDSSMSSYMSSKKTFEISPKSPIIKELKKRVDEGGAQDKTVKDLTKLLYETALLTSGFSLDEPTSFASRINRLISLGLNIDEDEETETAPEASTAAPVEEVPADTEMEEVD

T1 sequence (P10591 whole entry): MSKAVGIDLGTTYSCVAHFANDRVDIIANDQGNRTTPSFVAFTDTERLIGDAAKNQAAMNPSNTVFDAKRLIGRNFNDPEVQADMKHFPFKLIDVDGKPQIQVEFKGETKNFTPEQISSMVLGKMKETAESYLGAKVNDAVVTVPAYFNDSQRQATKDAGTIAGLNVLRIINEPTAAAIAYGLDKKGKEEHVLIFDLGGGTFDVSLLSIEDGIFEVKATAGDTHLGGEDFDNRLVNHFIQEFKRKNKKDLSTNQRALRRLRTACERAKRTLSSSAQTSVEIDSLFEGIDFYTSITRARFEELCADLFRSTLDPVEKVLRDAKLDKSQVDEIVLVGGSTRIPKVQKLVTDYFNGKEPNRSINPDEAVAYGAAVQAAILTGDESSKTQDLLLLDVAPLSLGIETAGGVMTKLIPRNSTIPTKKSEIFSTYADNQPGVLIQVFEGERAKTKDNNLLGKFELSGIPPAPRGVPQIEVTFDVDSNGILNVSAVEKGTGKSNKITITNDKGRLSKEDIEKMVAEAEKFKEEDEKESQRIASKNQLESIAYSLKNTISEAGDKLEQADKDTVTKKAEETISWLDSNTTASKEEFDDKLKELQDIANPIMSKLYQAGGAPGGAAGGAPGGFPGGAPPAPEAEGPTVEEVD
Sequence of hHsp90 (P08238 whole entry): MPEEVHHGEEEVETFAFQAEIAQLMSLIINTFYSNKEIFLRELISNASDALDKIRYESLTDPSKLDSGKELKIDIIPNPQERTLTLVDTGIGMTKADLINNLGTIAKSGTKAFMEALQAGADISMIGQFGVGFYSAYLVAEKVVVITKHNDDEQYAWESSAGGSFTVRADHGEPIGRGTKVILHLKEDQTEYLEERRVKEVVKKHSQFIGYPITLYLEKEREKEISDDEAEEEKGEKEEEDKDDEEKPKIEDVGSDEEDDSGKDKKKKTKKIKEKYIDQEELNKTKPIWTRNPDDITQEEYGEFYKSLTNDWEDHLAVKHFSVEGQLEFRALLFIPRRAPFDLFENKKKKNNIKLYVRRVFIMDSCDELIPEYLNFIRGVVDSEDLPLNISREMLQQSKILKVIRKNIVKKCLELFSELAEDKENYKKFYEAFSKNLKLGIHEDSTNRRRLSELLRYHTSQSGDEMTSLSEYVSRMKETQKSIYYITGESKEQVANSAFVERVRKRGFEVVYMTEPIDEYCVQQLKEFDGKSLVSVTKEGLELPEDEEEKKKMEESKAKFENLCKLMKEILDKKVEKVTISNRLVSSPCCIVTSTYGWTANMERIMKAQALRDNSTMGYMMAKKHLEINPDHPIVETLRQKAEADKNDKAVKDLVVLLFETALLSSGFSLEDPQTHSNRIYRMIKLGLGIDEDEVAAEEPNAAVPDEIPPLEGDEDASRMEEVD

binding result [1]: binds
B1: Hop S16E (natural protein)
chain: not shown

fold increase in KD against the wild type [1]: ~2 fold
B2: Hop Y354E (natural protein)
chain: not shown

binding result [2]: binds
binding result [3]: binds
fold stronger binding than to hHsp90 [4]: ~2 fold
B3: Sti1 (natural protein)
chain: MSLTADEYKQQGNAAFTAKDYDKAIELFTKAIEVSETPNHVLYSNRSACYTSLKKFSDALNDANECVKINPSWSKGYNRLGAAHLGLGDLDEAESNYKKALELDASNKAAKEGLDQVHRTQQARQAQPDLGLTQLFADPNLIENLKKNPKTSEMMKDPQLVAKLIGYKQNPQAIGQDLFTDPRLMTIMATLMGVDLNMDDINQSNSMPKEPETSKSTEQKKDAEPQSDSTTSKENSSKAPQKEESKESEPMEVDEDDSKIEADKEKAEGNKFYKARQFDEAIEHYNKAWELHKDITYLNNRAAAEYEKGEYETAISTLNDAVEQGREMRADYKVISKSFARIGNAYHKLGDLKKTIEYYQKSLTEHRTADILTKLRNAEKELKKAEAEAYVNPEKAEEARLEGKEYFTKSDWPNAVKAYTEMIKRAPEDARGYSNRAAALAKLMSFPEAIADCNKAIEKDPNFVRAYIRKATAQIAVKEYASALETLDAARTKDAEVNNGSSAREIDQLYYKASQQRFQPGTSNETPEETYQRAMKDPEVAAIMQDPVMQSILQQAQQNPAALQEHMKNPEVFKKIQTLIAAGIIRTGR

binding result [2]: binds
B4: Sti1 S95E (natural protein)
chain: MSLTADEYKQQGNAAFTAKDYDKAIELFTKAIEVSETPNHVLYSNRSACYTSLKKFSDALNDANECVKINPSWSKGYNRLGAAHLGLGDLDEAEENYKKALELDASNKAAKEGLDQVHRTQQARQAQPDLGLTQLFADPNLIENLKKNPKTSEMMKDPQLVAKLIGYKQNPQAIGQDLFTDPRLMTIMATLMGVDLNMDDINQSNSMPKEPETSKSTEQKKDAEPQSDSTTSKENSSKAPQKEESKESEPMEVDEDDSKIEADKEKAEGNKFYKARQFDEAIEHYNKAWELHKDITYLNNRAAAEYEKGEYETAISTLNDAVEQGREMRADYKVISKSFARIGNAYHKLGDLKKTIEYYQKSLTEHRTADILTKLRNAEKELKKAEAEAYVNPEKAEEARLEGKEYFTKSDWPNAVKAYTEMIKRAPEDARGYSNRAAALAKLMSFPEAIADCNKAIEKDPNFVRAYIRKATAQIAVKEYASALETLDAARTKDAEVNNGSSAREIDQLYYKASQQRFQPGTSNETPEETYQRAMKDPEVAAIMQDPVMQSILQQAQQNPAALQEHMKNPEVFKKIQTLIAAGIIRTGR

binding result [1]: binds
B5: Sti1 T37E (natural protein)
chain: MSLTADEYKQQGNAAFTAKDYDKAIELFTKAIEVSEEPNHVLYSNRSACYTSLKKFSDALNDANECVKINPSWSKGYNRLGAAHLGLGDLDEAESNYKKALELDASNKAAKEGLDQVHRTQQARQAQPDLGLTQLFADPNLIENLKKNPKTSEMMKDPQLVAKLIGYKQNPQAIGQDLFTDPRLMTIMATLMGVDLNMDDINQSNSMPKEPETSKSTEQKKDAEPQSDSTTSKENSSKAPQKEESKESEPMEVDEDDSKIEADKEKAEGNKFYKARQFDEAIEHYNKAWELHKDITYLNNRAAAEYEKGEYETAISTLNDAVEQGREMRADYKVISKSFARIGNAYHKLGDLKKTIEYYQKSLTEHRTADILTKLRNAEKELKKAEAEAYVNPEKAEEARLEGKEYFTKSDWPNAVKAYTEMIKRAPEDARGYSNRAAALAKLMSFPEAIADCNKAIEKDPNFVRAYIRKATAQIAVKEYASALETLDAARTKDAEVNNGSSAREIDQLYYKASQQRFQPGTSNETPEETYQRAMKDPEVAAIMQDPVMQSILQQAQQNPAALQEHMKNPEVFKKIQTLIAAGIIRTGR

binding result [1]: binds
B6: Sti1 S227E (natural protein)
chain: MSLTADEYKQQGNAAFTAKDYDKAIELFTKAIEVSETPNHVLYSNRSACYTSLKKFSDALNDANECVKINPSWSKGYNRLGAAHLGLGDLDEAESNYKKALELDASNKAAKEGLDQVHRTQQARQAQPDLGLTQLFADPNLIENLKKNPKTSEMMKDPQLVAKLIGYKQNPQAIGQDLFTDPRLMTIMATLMGVDLNMDDINQSNSMPKEPETSKSTEQKKDAEPQEDSTTSKENSSKAPQKEESKESEPMEVDEDDSKIEADKEKAEGNKFYKARQFDEAIEHYNKAWELHKDITYLNNRAAAEYEKGEYETAISTLNDAVEQGREMRADYKVISKSFARIGNAYHKLGDLKKTIEYYQKSLTEHRTADILTKLRNAEKELKKAEAEAYVNPEKAEEARLEGKEYFTKSDWPNAVKAYTEMIKRAPEDARGYSNRAAALAKLMSFPEAIADCNKAIEKDPNFVRAYIRKATAQIAVKEYASALETLDAARTKDAEVNNGSSAREIDQLYYKASQQRFQPGTSNETPEETYQRAMKDPEVAAIMQDPVMQSILQQAQQNPAALQEHMKNPEVFKKIQTLIAAGIIRTGR

fold increase in KD against the wild type [1]: ~2 fold
B7: Sti1 S410E (natural protein)
chain: MSLTADEYKQQGNAAFTAKDYDKAIELFTKAIEVSETPNHVLYSNRSACYTSLKKFSDALNDANECVKINPSWSKGYNRLGAAHLGLGDLDEAESNYKKALELDASNKAAKEGLDQVHRTQQARQAQPDLGLTQLFADPNLIENLKKNPKTSEMMKDPQLVAKLIGYKQNPQAIGQDLFTDPRLMTIMATLMGVDLNMDDINQSNSMPKEPETSKSTEQKKDAEPQSDSTTSKENSSKAPQKEESKESEPMEVDEDDSKIEADKEKAEGNKFYKARQFDEAIEHYNKAWELHKDITYLNNRAAAEYEKGEYETAISTLNDAVEQGREMRADYKVISKSFARIGNAYHKLGDLKKTIEYYQKSLTEHRTADILTKLRNAEKELKKAEAEAYVNPEKAEEARLEGKEYFTKEDWPNAVKAYTEMIKRAPEDARGYSNRAAALAKLMSFPEAIADCNKAIEKDPNFVRAYIRKATAQIAVKEYASALETLDAARTKDAEVNNGSSAREIDQLYYKASQQRFQPGTSNETPEETYQRAMKDPEVAAIMQDPVMQSILQQAQQNPAALQEHMKNPEVFKKIQTLIAAGIIRTGR

binding result [1]: binds
B8: Sti1 S258E (natural protein)
chain: MSLTADEYKQQGNAAFTAKDYDKAIELFTKAIEVSETPNHVLYSNRSACYTSLKKFSDALNDANECVKINPSWSKGYNRLGAAHLGLGDLDEAESNYKKALELDASNKAAKEGLDQVHRTQQARQAQPDLGLTQLFADPNLIENLKKNPKTSEMMKDPQLVAKLIGYKQNPQAIGQDLFTDPRLMTIMATLMGVDLNMDDINQSNSMPKEPETSKSTEQKKDAEPQSDSTTSKENSSKAPQKEESKESEPMEVDEDDEKIEADKEKAEGNKFYKARQFDEAIEHYNKAWELHKDITYLNNRAAAEYEKGEYETAISTLNDAVEQGREMRADYKVISKSFARIGNAYHKLGDLKKTIEYYQKSLTEHRTADILTKLRNAEKELKKAEAEAYVNPEKAEEARLEGKEYFTKSDWPNAVKAYTEMIKRAPEDARGYSNRAAALAKLMSFPEAIADCNKAIEKDPNFVRAYIRKATAQIAVKEYASALETLDAARTKDAEVNNGSSAREIDQLYYKASQQRFQPGTSNETPEETYQRAMKDPEVAAIMQDPVMQSILQQAQQNPAALQEHMKNPEVFKKIQTLIAAGIIRTGR
